Experimental data published in patent publication US20240150475A1 (Molecular Partners, published 2024).

T1: biotinylated extracellular domains of human CD123 with C-terminal Fc tag and Avi tag (bio.hCD123-Fc(kih)-Avi) (human, UniProt P26951 19-303, biotinylated with BirA-GST (Avi tag))
T1 construct: Bought from Evitria; the second Fc chain and the number of CD123 arms are not described; also called biotinylated hCD123; recombinant human CD123 target; not shown: Avi tag
T1 sequence: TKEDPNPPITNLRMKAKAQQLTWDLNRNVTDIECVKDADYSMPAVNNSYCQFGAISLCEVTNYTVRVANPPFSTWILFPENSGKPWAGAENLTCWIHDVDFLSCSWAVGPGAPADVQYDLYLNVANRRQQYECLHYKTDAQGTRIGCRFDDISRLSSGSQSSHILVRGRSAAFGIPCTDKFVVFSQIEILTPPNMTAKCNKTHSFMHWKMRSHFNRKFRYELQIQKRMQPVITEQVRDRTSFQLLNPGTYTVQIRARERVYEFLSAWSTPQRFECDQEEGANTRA

B1: DARPin® protein #3 (in TCE format) (designed binder, not shown: small tags and cut ends)
chain: MRGSHHHHHHGSDLGKKLLQAARAGQLDEVRELLKAGADVNAKDQYGRTPLHLAAIKGHLEIVEVLLKAGADVNAKDSLGYTPLHLAAVEGPLEIVEVLLKAGADVNAKDAYGQTPLHIAAAWGHLEIVEVLLKAVADVNAQDKSGKTPADLAARAGHQDIAEVLQKAA
B2: DARPin® protein #5 (in TCE format) (designed binder, not shown: small tags and cut ends)
chain: MRGSHHHHHHGSDLGKKLLKAALLGQDDEVRELLKAGADVNAKDRFGYTPLHLAAWTGHLEIVEVLLKAGADVNAKDAYGWTPLHIAAHSGHLEIVEVLLKAGADVNAQDLEGETPADLAAAQGHEDIAEVLQKAA
B3: DARPin® protein #1 (in TCE format) (designed binder, not shown: small tags and cut ends)
chain: MRGSHHHHHHGSDLGKKLLEAALEGQDDEVRELLKAGADVNAKDQEGYTPLHLAAALGHLEIVEVLLKAGADVNAKDSIGRTPLHLAAYKGHLEIVEVLLKAGADVNAQDLLGETPADLAAEQGHEDIAEVLQKAA
B4: DARPin® protein #6 (in TCE format) (designed binder, not shown: small tags and cut ends)
chain: MRGSHHHHHHGSDLGEKLLEAALEGQDDEVRELLKAGADVNAKDQEGYTPLHLAAALGHLEIVEVLLKAGADVNAKDSIDRTPLHLAAYKGHLEIVEVLLKAGADVNAQDAAGQTPADLAAALGHEDIAEVLQKAA
B5: DARPin® protein #4 (in TCE format) (designed binder, not shown: small tags and cut ends)
chain: MRGSHHHHHHGSDLGKKLLQAARAGQLDEVRELLKAGADVNAKDEYGATPLHLAAYSGHLEIVEVLLKAGADVNAKDEWGRTPLHVAALSGHLEIVEVLLKAGADVNAKDHQGRTPLHLAALWGHLEIVEVLLKAVADVNAQDKSGKTPADLAARAGHQDIAEVLQKAA
B6: DARPin® protein #9 (in TCE format) (designed binder, not shown: small tags and cut ends)
chain: MRGSHHHHHHGSDLGWKLLDAAEIGQDDEVRILLAAGADVNAKDKQGITPLHIAAAHGHLEIVEVLLKAGADVNAKDEIGRTPLHLAAFKGHLEIVEVLLKAGADVNAQDIIGETPADLAAVRGHEDIAEVLQKAA
B7: DARPin® protein #7 (in TCE format) (designed binder, not shown: small tags and cut ends)
chain: MRGSHHHHHHGSDLGKKLLQAARAGQLDEVRELLKAGADVNAKDEYGLTPLHLAAEFGHLEIVEVLLKAGADVNAKDANGHTPLHLAAAYDHLEIVEVLLKAGADVNAKDTSGKTPLHLAAQYGHLEIVEVLLKAGADVNAQDKSGKTPADLAARAGHQDIAEVLQKAA
B8: DARPin® protein #8 (in TCE format) (designed binder, not shown: small tags and cut ends)
chain: MRGSHHHHHHGSDLGKKLLNAAHIGQDDEVRILLAAGADVNAKDIVGKTPLHIAAWLGHLEIVEVLLKAGADVNAKDDHGWTPLHIAAHVGHLEIVEVLLKAGADVNAQDNAGNTPADLVAFQGHEDIAEVLQKAA
B9: DARPin® protein #9 (monospecific format) (designed binder)
chain: DLGWKLLDAAEIGQDDEVRILLAAGADVNAKDKQGITPLHIAAAHGHLEIVEVLLKAGADVNAKDEIGRTPLHLAAFKGHLEIVEVLLKAGADVNAQDIIGETPADLAAVRGHEDIAEVLQKAA
B10: DARPin® protein #12 (designed binder)
chain: DLGWKLLDAAEIGQLDEVRILLKAGADVNAKDKQGITPLHIAAAHGHLEIVEVLLKAGADVNAKDEIGRTPLHLAAFKGHLEIVEVLLKAGADVNAQDIIGETPADLAAVRGHQDIAEVLQKAA
B11: DARPin® protein #13 (designed binder)
chain: DLGKKLLEAALEGQLDEVRELLKAGADVNAKDQEGYTPLHLAAALGHLEIVEVLLKAGADVNAKDQIGRTPLHLAAYKGHLEIVEVLLKAGADVNAQDIIGQTPADLAAQRGHQDIAEVLQKAA
B12: DARPin® protein #2 (designed binder)
chain: DLGKKLLEAALEGQLDEVRELLKAGADVNAKDQEGYTPLHLAAALGHLEIVEVLLKAGADVNAKDSIGRTPLHLAAYKGHLEIVEVLLKAGADVNAQDLLGETPADLAAEQGHQDIAEVLQKAA
B13: DARPin® protein #14 (designed binder)
chain: DLGKKLLQAALEGQLDEVRELLKAGADVNAKDIEGYTPLHLAAALGHLEIVEVLLKAGADVNAKDQIGRTPLHLAAYKGHLEIVEVLLKAGADVNAQDIIGQTPADLAAQRGHQDIAEVLQKAA
B14: DARPin® protein #3 (monospecific format) (designed binder)
chain: DLGKKLLQAARAGQLDEVRELLKAGADVNAKDQYGRTPLHLAAIKGHLEIVEVLLKAGADVNAKDSLGYTPLHLAAVEGPLEIVEVLLKAGADVNAKDAYGQTPLHIAAAWGHLEIVEVLLKAVADVNAQDKSGKTPADLAARAGHQDIAEVLQKAA

Columns and labels:
[1] = target: T1, biotinylated extracellular domains of …; assay: SPR (ProteOn XPR36), bio.hCD123 immobilised on NLC chip, DARPin in TCE format injected at 50 nM, single trace
Procedure: SPR measurements were performed using a ProteOn XPR36 instrument (BioRad). The running buffer was PBS pH 7.4 containing 0.005% Tween 20® (PBST). The bio.hCD123 target was immobilized on a NLC chips (BioRad) to a level of 600 RU. The interactions of the 96well purified CD123-specific ankyrin repeat proteins in TCE format to bio. hCD123 were measured by injecting the DARPin® molecules at 50 nM with an association of 120 s and dissociation of 1200 s using a constant flow of 100 μl/min. Some DARPin proteins were reinjected using a dissociation of 600 s. The target was regenerated between the individual measurements using 10 mM Glycine pH2.5. The signals were double referenced against the running buffer (PBST) treated control lane of L1 and A6.
Dissociation constants (KD) were calculated from the estimated on- and off-rates using standard procedures known to the person skilled in the art. KD values were determined by single trace SPR. The values in Table 2a are averages of multiple replicates.

[2] = target: T2, CD123 expressed on the surface of Molm-13 (Molm-13 N1) tumor cells (human, UniProt P26951 19-378); assay: flow cytometry on CD123-expressing Molm-13 N1 tumor cells, monospecific format
T2 construct: whole, on cells; also called CD123-expressing tumor cells; CD123 expressed on tumor cells
Procedure: Binding of binding proteins of the invention to CD123 expressed on the surface of tumor cells was analyzed by fluorescence activated cell sorting (FACS) flow cytometry. For this purpose, CD123 expressing tumor cells (Molm-13 N1) were seeded at 100′000 cells per well in a 96 well plate. DARPin protein #2, DARPin protein #3, DARPin protein #9, DARPin protein #12, DARPin protein #13 and DARPin protein #14, in monospecific format, were titrated down in 1:5 dilution ratio starting at 2000 nM. Tumor cells were resuspended with diluted DARPin proteins and incubated for 60 minutes at 4° C. The assay was performed in PBS including 2% fetal bovine serum without human serum albumin (HSA). After washing twice with Phosphate Buffer saline (PBS), DARPin® protein specific tumor cell binding was detected by adding unlabeled primary anti-rabbit DARPin® antibody (anti-rabbit 1-1-1 antibody, CePower) at 2 ug/ml. An incubation step of at least 30 minutes at 4° C. followed. Afterwards, cells were washed with PBS and a secondary goat anti-rabbit antibody labelled with Alexa Fluor 488 antibody (ThermoFisher) at 2 ug/ml was added. The same incubation conditions applied. Finally, the cells were washed twice and resuspended in Cytofix fixation buffer (BD Biosciences) for 15 min at room temperature (RT).

[3] = target: T1, biotinylated extracellular domains of …; assay: SPR (ProteOn), bio.hCD123 on neutravidin-coated GLC chip, DARPin 100-1.2 nM, 1:1 Langmuir fit
Procedure: Moreover, the binding affinities of three additional purified ankyrin repeat proteins on recombinant human CD123 target were measured and analyzed with a procedure as described above for DARPin proteins #1, #3 to #9. Briefly, neutravidin was precoated on a GLC chip (BioRad) to a level of 6000 RU. In a second step, bio.hCD123 was immobilized to a level of 1030 RU. A serial dilution of 100, 33, 11, 3.7 and 1.2 nM was used to measure the binding of DARPin protein #12, DARPin protein #13 and DARPin protein #14 to bio.hCD123. For all described measurements, an association of 120 s and dissociation of 1200 s using a constant flow of 100 μl/min were applied. The CD123 target was regenerated with two different conditions (10 mM Glycine pH2.0 and 4M MgCl2) each applied for 30s. The signals were double referenced against interspot and the running buffer (PBST-PBS pH 7.4 containing 0.005% Tween 20®) treated control lane A6. The 1:1 Langmuir model was used for the fitting.
KD values were calculated from the estimated on- and off-rates using standard procedures known to the person skilled in the art. The values in Table 2b are averages of multiple replicates.

| Binder | Kd [1] | EC50 [2] | Kd [3] |
| --- | --- | --- | --- |
| B1 | 0.52 nM | – | – |
| B2 | 8.5 nM | – | – |
| B3 | 12 nM | – | – |
| B4 | 4.5 nM | – | – |
| B5 | 45 nM | – | – |
| B6 | 2.1 nM | – | – |
| B7 | 0.93 nM | – | – |
| B8 | 1 nM | – | – |
| B9 | – | 7.9 nM | – |
| B10 | – | 3.2 nM | 0.49 nM |
| B11 | – | 0.41 nM | 0.02 nM |
| B12 | – | 29 nM | – |
| B13 | – | 1.3 nM | 0.02 nM |
| B14 | – | 77 nM | – |
